Reference: patent publication US20190060404A1 (published 2019)

Key:
FGFR1-Fc = FGFR1-Fc (UniProt P11362); test: SPR, FGFR1-Fc fixed on the sensor, VEGF-B167 added
human FGFR2-Fc (human) = human FGFR2-Fc (human) (UniProt P21802); test: SPR, FGFR2-Fc fixed on the sensor, VEGF-B167 added
[1] = target: T1, VEGFR2 of C57B16 mouse retina and brain tissue (mouse, UniProt P35918 20-1345, limits assumed); test: co-immunoprecipitation with anti-FGFR2 antibody from mouse brain and retinal tissue
T1 construct: Endogenous protein in tissue lysate
Description: (§1) Co-immunoprecipitation assay: brain tissues and retinae of the C57B16 mice were separated, and were homogenated after added with RIPA buffer comprising protease and phosphatase inhibitor. Supernatant was obtained by centrifuging. After protein quantification, the supernatant was incubated with anti-FGFR1 antibody at 4° C. overnight. Magnetic beads combined with A/G protein were added to capture the antibody complex. 10% PAGE electrophoresis and transfer to a PVDF film were performed successively for the complex, then the complex was incubated with the primary antibody of VEGFR1, VEGFR2 or FGFR1, and was further incubated with HRP-labeled secondary antibody, ECL luminescence reagent was added to display color in the end.
Co-Immunoprecipitation: brain tissue and retinae were extracted from the C57B16 mice. The C57B16 mice were intravitreally injected with BSA (500 ng/eye), FGF2 (100 ng/eye) or VEGF-B₁₆₇ (500 ng/eye), and their retinae were extracted 1 hour after the injection. The brain tissue and retinae, and the retinae from the injected C57B16 mice were treated by the operational procedure described in Embodiment 5, and incubated with anti-FGFR2 antibody for co-immunoprecipitation (with VEGFR1 or VEGFR2).

[2] = target: T1, VEGFR2 of C57B16 mouse retina and brain …; test: co-immunoprecipitation with anti-FGFR1 antibody from mouse retina and brain tissue
Description: as §1

T1 sequence (P35918 20-1345 limits assumed, one chain of several): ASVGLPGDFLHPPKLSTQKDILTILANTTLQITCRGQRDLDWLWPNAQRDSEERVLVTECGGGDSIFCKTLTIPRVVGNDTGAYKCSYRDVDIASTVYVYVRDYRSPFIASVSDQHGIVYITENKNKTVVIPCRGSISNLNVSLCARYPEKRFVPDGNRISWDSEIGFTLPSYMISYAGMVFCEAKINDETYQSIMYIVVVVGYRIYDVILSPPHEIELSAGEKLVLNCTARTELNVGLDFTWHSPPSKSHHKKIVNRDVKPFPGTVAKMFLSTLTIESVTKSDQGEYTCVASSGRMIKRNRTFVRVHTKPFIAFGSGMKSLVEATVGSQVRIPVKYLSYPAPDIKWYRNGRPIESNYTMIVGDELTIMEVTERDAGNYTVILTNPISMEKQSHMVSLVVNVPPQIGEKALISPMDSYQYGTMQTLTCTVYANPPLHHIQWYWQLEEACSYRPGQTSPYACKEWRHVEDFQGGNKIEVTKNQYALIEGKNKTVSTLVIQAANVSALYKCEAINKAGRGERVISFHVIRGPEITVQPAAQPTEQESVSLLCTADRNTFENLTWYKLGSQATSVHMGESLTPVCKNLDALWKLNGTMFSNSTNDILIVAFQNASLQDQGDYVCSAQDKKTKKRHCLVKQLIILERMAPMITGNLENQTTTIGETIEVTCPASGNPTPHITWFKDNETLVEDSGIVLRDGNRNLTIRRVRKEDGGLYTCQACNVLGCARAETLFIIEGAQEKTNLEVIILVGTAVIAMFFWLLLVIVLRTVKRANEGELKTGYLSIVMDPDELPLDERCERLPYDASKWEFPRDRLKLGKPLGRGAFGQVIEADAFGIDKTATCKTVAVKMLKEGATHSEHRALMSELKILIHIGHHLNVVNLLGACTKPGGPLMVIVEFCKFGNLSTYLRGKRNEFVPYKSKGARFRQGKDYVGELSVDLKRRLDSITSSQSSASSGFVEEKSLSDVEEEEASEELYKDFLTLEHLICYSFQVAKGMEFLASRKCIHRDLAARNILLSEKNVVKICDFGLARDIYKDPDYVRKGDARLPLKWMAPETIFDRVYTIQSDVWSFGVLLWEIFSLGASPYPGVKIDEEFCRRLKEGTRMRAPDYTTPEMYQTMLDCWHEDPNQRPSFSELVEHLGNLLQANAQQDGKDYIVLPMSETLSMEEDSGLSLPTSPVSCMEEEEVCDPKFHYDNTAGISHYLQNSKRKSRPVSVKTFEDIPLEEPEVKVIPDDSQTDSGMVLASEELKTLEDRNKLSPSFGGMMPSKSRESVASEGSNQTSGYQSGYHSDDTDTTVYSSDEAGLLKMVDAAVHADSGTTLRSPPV
Sequence of FGFR1-Fc (P11362 22-376 limits assumed): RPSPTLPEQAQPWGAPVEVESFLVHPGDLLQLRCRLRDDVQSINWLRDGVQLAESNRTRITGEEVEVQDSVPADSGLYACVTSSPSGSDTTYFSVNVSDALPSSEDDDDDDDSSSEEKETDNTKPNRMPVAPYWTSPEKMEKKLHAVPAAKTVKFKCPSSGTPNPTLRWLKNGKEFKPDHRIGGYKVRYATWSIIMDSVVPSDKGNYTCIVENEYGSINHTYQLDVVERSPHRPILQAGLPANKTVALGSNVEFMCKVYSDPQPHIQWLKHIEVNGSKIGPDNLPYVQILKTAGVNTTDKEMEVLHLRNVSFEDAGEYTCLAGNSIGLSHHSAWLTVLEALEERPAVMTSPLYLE

VEGF-B167 (from UniProt P49765 22-207) (ligand)
Kd (FGFR1-Fc): 0.015 µM | Kd (human FGFR2-Fc (human)): 0.112 µM

B1: FGFR2 of C57B16 mouse tissue and mouse primary SMC (receptor, UniProt P21803 22-821, looked up)
chain: RPSFSLVEDTTLEPEEPPTKYQISQPEAYVVAPGESLELQCMLKDAAVISWTKDGVHLGPNNRTVLIGEYLQIKGATPRDSGLYACTAARTVDSETWIFMVNVTDAISSGDDEDDTDSSEDVVSENRSNQRAPYWTNTEKMEKRLHACPAANTVKFRCPAGGNPTSTMRWLKNGKEFKQEHRIGGYKVRNQHWSLIMESVVPSDKGNYTCLVENEYGSINHTYHLDVVERSPHRPILQAGLPANASTVVGGDVEFVCKVYSDAQPHIQWIKHVEKNGSKNGPDGLPYLKVLKAAGVNTTDKEIEVLYIRNVTFEDAGEYTCLAGNSIGISFHSAWLTVLPAPVREKEITASPDYLEIAIYCIGVFLIACMVVTVIFCRMKTTTKKPDFSSQPAVHKLTKRIPLRRQVTVSAESSSSMNSNTPLVRITTRLSSTADTPMLAGVSEYELPEDPKWEFPRDKLTLGKPLGEGCFGQVVMAEAVGIDKDKPKEAVTVAVKMLKDDATEKDLSDLVSEMEMMKMIGKHKNIINLLGACTQDGPLYVIVEYASKGNLREYLRARRPPGMEYSYDINRVPEEQMTFKDLVSCTYQLARGMEYLASQKCIHRDLAARNVLVTENNVMKIADFGLARDINNIDYYKKTTNGRLPVKWMAPEALFDRVYTHQSDVWSFGVLMWEIFTLGGSPYPGIPVEELFKLLKEGHRMDKPTNCTNELYMMMRDCWHAVPSQRPTFKQLVEDLDRILTLTTNEEYLDLTQPLEQYSPSYPDTSSSCSSGDDSVFSPDPMPYEPCLPQYPHINGSVKT
notes: Endogenous protein in tissue lysate (co-immunoprecipitation) or on cells (proximity ligation assay)
binding result [1]: no binding

B2: FGFR1 of C57B16 mouse retina and brain tissue (receptor, UniProt P16092 22-822, looked up)
chain: RPAPTLPEQAQPWGVPVEVESLLVHPGDLLQLRCRLRDDVQSINWLRDGVQLVESNRTRITGEEVEVRDSIPADSGLYACVTSSPSGSDTTYFSVNVSDALPSSEDDDDDDDSSSEEKETDNTKPNRRPVAPYWTSPEKMEKKLHAVPAAKTVKFKCPSSGTPNPTLRWLKNGKEFKPDHRIGGYKVRYATWSIIMDSVVPSDKGNYTCIVENEYGSINHTYQLDVVERSPHRPILQAGLPANKTVALGSNVEFMCKVYSDPQPHIQWLKHIEVNGSKIGPDNLPYVQILKTAGVNTTDKEMEVLHLRNVSFEDAGEYTCLAGNSIGLSHHSAWLTVLEALEERPAVMTSPLYLEIIIYCTGAFLISCMLGSVIIYKMKSGTKKSDFHSQMAVHKLAKSIPLRRQVTVSADSSASMNSGVLLVRPSRLSSSGTPMLAGVSEYELPEDPRWELPRDRLVLGKPLGEGCFGQVVLAEAIGLDKDKPNRVTKVAVKMLKSDATEKDLSDLISEMEMMKMIGKHKNIINLLGACTQDGPLYVIVEYASKGNLREYLQARRPPGLEYCYNPSHNPEEQLSSKDLVSCAYQVARGMEYLASKKCIHRDLAARNVLVTEDNVMKIADFGLARDIHHIDYYKKTTNGRLPVKWMAPEALFDRIYTHQSDVWSFGVLLWEIFTLGGSPYPGVPVEELFKLLKEGHRMDKPSNCTNELYMMMRDCWHAVPSQRPTFKQLVEDLDRIVALTSNQEYLDLSIPLDQYSPSFPDTRSSTCSSGEDSVFSHEPLPEEPCLPRHPTQLANSGLKRR
notes: Endogenous protein in tissue lysate
binding result [2]: no binding
